Test results published in patent publication US20190106460A1 (published 2019).
Starred links: 1 amine or outer side, 2 acyl side, 3 side chain; linkers in the order of their positions; H or OH if unused. Non-standard residues stand in square brackets, D forms with d. No end group written: not given here. *: point of attachment. Tyr(Me) = O-methyl-L-tyrosine, COc1ccc(C[C@H](N[*:1])C(=O)[*:2])cc1; Phe(4-NO2) = N[C@@H](Cc1ccc([N+](=O)[O-])cc1)C(=O)O; 2,4,6‑trimethylbenzoyl = Cc1cc(C)c(C(=O)*)c(C)c1; Benzenesulfonyl(4-OMe) = COc1ccc(S(=O)(=O)*)cc1; Benzoyl(4-tBu) = CC(C)(C)c1ccc(C(=O)*)cc1; Phe(3-F) = N[C@@H](Cc1cccc(F)c1)C(=O)O; Phe(4-F) = N[C@@H](Cc1ccc(F)cc1)C(=O)O; 1Nal = N[C@@H](Cc1cccc2ccccc12)C(=O)O; Phe(2-F) = N[C@@H](Cc1ccccc1F)C(=O)O; Maleoyl = O=C(/C=C\C(=O)[*:2])[*:1]; Benzoyl(4-Br) = O=C(c1ccc(Br)cc1)*; 2Naphthoyl = O=C(c1ccc2ccccc2c1)*; Benzoyl(4-Me) = Cc1ccc(C(=O)*)cc1; pS = N[C@@H](COP(=O)(O)O)C(=O)O; Suc = O=C(CCC(=O)[*:2])[*:1]; Hexanoyl = CCCCCC(=O)*; Bz = O=C(c1ccccc1)*; Ahx = NCCCCCC(=O)O

B1: Suc-QGF(3F)F(4NO2)E-NH2 (peptide)
peptide: QGXXE
modifications: N-terminal Suc (succinyl) cap; position 3 F(3F); position 4 F(4NO2); C-terminal amide
B2: Suc-EGF(2F)F(4NO2)E-NH2 (peptide)
peptide: Suc-EG[Phe(2-F)][Phe(4-NO2)]E-NH2
SMILES: NC(=O)[C@H](CCC(=O)O)NC(=O)[C@H](Cc1ccc([N+](=O)[O-])cc1)NC(=O)[C@H](Cc1ccccc1F)NC(=O)CNC(=O)[C@H](CCC(=O)O)NC(=O)CCC(=O)O
B3: Suc-EGYF(4NO2)E-NH2 (peptide)
peptide: Suc-EGY[Phe(4-NO2)]E-NH2
SMILES: NC(=O)[C@H](CCC(=O)O)NC(=O)[C@H](Cc1ccc([N+](=O)[O-])cc1)NC(=O)[C@H](Cc1ccc(O)cc1)NC(=O)CNC(=O)[C@H](CCC(=O)O)NC(=O)CCC(=O)O
B4: Suc-EGF(3F)F(4NO2)E-NH2 (peptide)
peptide: Suc-EG[Phe(3-F)][Phe(4-NO2)]E-NH2
SMILES: NC(=O)[C@H](CCC(=O)O)NC(=O)[C@H](Cc1ccc([N+](=O)[O-])cc1)NC(=O)[C@H](Cc1cccc(F)c1)NC(=O)CNC(=O)[C@H](CCC(=O)O)NC(=O)CCC(=O)O
B5: Suc-EGF(4F)F(4NO2)E-NH2 (peptide)
peptide: Suc-EG[Phe(4-F)][Phe(4-NO2)]E-NH2
SMILES: NC(=O)[C@H](CCC(=O)O)NC(=O)[C@H](Cc1ccc([N+](=O)[O-])cc1)NC(=O)[C@H](Cc1ccc(F)cc1)NC(=O)CNC(=O)[C@H](CCC(=O)O)NC(=O)CCC(=O)O
B6: Suc-EGF(2F)Y(Me)E-NH2 (peptide)
peptide: Suc-EG[Phe(2-F)][Tyr(Me)]E-NH2
SMILES: COc1ccc(C[C@H](NC(=O)[C@H](Cc2ccccc2F)NC(=O)CNC(=O)[C@H](CCC(=O)O)NC(=O)CCC(=O)O)C(=O)N[C@@H](CCC(=O)O)C(N)=O)cc1
B7: 4-(MeO)PhSO2-dEGF(3F)WE-NH2 (peptide)
peptide: {Benzenesulfonyl(4-OMe)}-[dD]EG[Phe(3-F)]WE-NH2
SMILES: COc1ccc(S(=O)(=O)N[C@H](CC(=O)O)C(=O)N[C@@H](CCC(=O)O)C(=O)NCC(=O)N[C@@H](Cc2cccc(F)c2)C(=O)N[C@@H](Cc2c[nH]c3ccccc23)C(=O)N[C@@H](CCC(=O)O)C(N)=O)cc1
notes: also called UBP022
B8: Suc-EGF(4NO2)1NalE-NH2 (peptide)
peptide: Suc-EG[Phe(4-NO2)][1Nal]E-NH2
SMILES: NC(=O)[C@H](CCC(=O)O)NC(=O)[C@H](Cc1cccc2ccccc12)NC(=O)[C@H](Cc1ccc([N+](=O)[O-])cc1)NC(=O)CNC(=O)[C@H](CCC(=O)O)NC(=O)CCC(=O)O
B9: Mal-EGF(3F)F(4NO2)E-NH2 (peptide)
peptide: Maleoyl-EG[Phe(3-F)][Phe(4-NO2)]E-NH2
SMILES: NC(=O)[C@H](CCC(=O)O)NC(=O)[C@H](Cc1ccc([N+](=O)[O-])cc1)NC(=O)[C@H](Cc1cccc(F)c1)NC(=O)CNC(=O)[C@H](CCC(=O)O)NC(=O)/C=C\C(=O)O
B10: 4-(MeO)PhSO2-dEGF(3F)WE-Ahx-K(NHCO-Ph)-NH2 (peptide)
peptide: {Benzenesulfonyl(4-OMe)}-[dD]EG[Phe(3-F)]WE[Ahx]K-NH2
modifications: not fully specified (residue 8); printed as 4-(MeO)PhSO2-dEGF(3F)WE-Ahx-K(NHCO-Ph)-NH2
notes: also called UBP065
B11: DpSGIFE-NH2 (peptide)
peptide: D[pS]GIFE-NH2
modifications: N-terminus assumed
SMILES: CC[C@H](C)[C@H](NC(=O)CNC(=O)[C@H](COP(=O)(O)O)NC(=O)[C@@H](N)CC(=O)O)C(=O)N[C@@H](Cc1ccccc1)C(=O)N[C@@H](CCC(=O)O)C(N)=O
B12: 4-(MeO)PhSO2-dEGF(3F)WE-Ahx-K(NHCO-CH2CH2Ch(CH3)2)-NH2 (peptide)
peptide: {Benzenesulfonyl(4-OMe)}-[dD]EG[Phe(3-F)]WE[Ahx]K-NH2
modifications: not fully specified (residue 8); printed as 4-(MeO)PhSO2-dEGF(3F)WE-Ahx-K(NHCO-CH2CH2Ch(CH3)2)-NH2
notes: also called UBP068

How the values were obtained:
[1] = target: T1, Beta Transducin repeat-containing protein (βTrCP), tag cleaved and complexed with Skp1 (UniProt Q9Y297 175-605; P63208 1-163); assay: FP competition dose-response, fluorescein-IkB peptide tracer on βTrCP/Skp1 (average Ki; assay not given)
T1 construct: the FP protocol says that Ki is determined from FP dose-response curves; also called βTrCP/Skp1

Skp2 = Skp2 (UniProt Q13309 1-424, limits assumed); assay: cell-based or functional assay
Fbw7 = Fbw7 (UniProt Q969H0 263-707, limits assumed); assay: cell-based or functional assay
Sequence of Fbw7 (Q969H0 263-707 limits assumed): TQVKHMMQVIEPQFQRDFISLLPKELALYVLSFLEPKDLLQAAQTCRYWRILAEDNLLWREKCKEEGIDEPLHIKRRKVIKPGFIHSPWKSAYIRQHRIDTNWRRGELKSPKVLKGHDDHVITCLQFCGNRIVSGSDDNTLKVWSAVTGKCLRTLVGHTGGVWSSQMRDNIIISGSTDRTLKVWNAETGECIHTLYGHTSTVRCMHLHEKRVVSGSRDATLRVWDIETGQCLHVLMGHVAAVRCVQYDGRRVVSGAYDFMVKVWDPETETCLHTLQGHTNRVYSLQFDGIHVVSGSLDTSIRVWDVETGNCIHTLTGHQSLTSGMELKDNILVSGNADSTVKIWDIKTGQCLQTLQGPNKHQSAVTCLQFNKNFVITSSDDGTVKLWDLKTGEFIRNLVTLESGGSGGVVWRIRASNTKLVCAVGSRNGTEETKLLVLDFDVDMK

Sequence of Skp2 (Q13309 whole entry): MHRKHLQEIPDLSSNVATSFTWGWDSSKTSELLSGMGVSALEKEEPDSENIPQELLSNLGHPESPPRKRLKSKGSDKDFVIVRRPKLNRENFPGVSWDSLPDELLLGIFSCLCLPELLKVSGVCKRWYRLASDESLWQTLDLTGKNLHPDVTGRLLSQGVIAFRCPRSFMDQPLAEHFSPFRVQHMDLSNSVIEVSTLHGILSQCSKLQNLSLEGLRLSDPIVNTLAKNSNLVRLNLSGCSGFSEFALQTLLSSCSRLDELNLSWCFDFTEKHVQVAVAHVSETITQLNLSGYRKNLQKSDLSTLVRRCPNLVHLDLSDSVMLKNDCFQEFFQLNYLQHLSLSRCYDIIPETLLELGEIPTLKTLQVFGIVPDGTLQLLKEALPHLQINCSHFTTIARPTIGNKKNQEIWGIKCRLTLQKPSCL
T1 sequence (Q9Y297 175-605, chain 1 of 2): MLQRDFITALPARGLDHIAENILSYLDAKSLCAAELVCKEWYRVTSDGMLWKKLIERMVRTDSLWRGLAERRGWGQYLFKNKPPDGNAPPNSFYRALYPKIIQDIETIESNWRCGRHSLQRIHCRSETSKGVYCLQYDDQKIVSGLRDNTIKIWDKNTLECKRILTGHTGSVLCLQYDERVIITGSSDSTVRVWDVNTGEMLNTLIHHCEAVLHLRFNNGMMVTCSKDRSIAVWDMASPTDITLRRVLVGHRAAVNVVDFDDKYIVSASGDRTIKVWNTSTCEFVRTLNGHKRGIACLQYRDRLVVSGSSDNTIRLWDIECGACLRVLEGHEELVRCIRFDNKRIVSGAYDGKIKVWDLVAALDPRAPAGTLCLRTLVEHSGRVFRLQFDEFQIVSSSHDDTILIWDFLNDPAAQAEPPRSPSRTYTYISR
T1 sequence (P63208 whole entry, chain 2 of 2): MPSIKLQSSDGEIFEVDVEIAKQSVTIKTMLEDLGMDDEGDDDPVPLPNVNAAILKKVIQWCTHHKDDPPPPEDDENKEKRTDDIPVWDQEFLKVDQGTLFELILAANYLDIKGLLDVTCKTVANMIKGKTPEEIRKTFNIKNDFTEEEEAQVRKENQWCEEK

Binder | Ki [1] [nM] | % Inhibition Skp2 @ 10 µM (Skp2) [%] | % Inhibition Skp2 @ (100 µM) (Skp2) [%] | % Inhibition Fbw7 @ 10 µM (Fbw7) [%] | % Inhibition Fbw7 @ (100 µM) (Fbw7) [%]
{Benzenesulfonyl(4-OMe)}-[dD]EG[Phe(3-F)]WE[Ahx]K(2Naphthoyl)-NH2 (also called UBP055) [4-(MeO)PhSO2-dEGF(3F)WE-Ahx-K(NHCO-2-Naph)-NH2] | 1.85 |  |  |  | 
B1 |  | 0 | 0 | 0 | 0
{Benzenesulfonyl(4-OMe)}-[dD]EG[Phe(3-F)]WE[Ahx]K(Hexanoyl)-NH2 (also called UBP063) [4-(MeO)PhSO2-dEGF(3F)WE-Ahx-K(NHCO-(CH2)4CH3)-NH2] | 5.37 |  |  |  | 
B2 |  | 8 | 11 | 0 | 0
B3 |  | 11 | 31 | 0 | 0
{Benzenesulfonyl(4-OMe)}-[dD]EG[Phe(3-F)]WE[Ahx]K(4‑(trifluoromethyl)benzoyl)-NH2 (also called UBP064) [4-(MeO)PhSO2-dEGF(3F)WE-Ahx-K(NHCO-(4-(CF3)-Ph))-NH2] | 6.39 |  |  |  | 
{Benzenesulfonyl(4-OMe)}-[dD]EG[Phe(3-F)]WE[Ahx]K(3,5‑dichlorobenzoyl)-NH2 (also called UBP062) [4-(MeO)PhSO2-dEGF(3F)WE-Ahx-K(NHCO-(3,5-(Cl)2-Ph))-NH2] | 6.23 |  |  |  | 
{Benzenesulfonyl(4-OMe)}-[dD]EG[Phe(3-F)]WE[Ahx]K(Bz)-NH2 (also called UBP061) [4-(MeO)PhSO2-dEGF(3F)WE-Ahx-K(NHCOPh)-NH2] | 3.1 |  |  |  | 
{Benzenesulfonyl(4-OMe)}-[dD]EG[Phe(3-F)]WE[Ahx]K(2,4,6‑trimethylbenzoyl)-NH2 (also called UBP056) [4-(MeO)PhSO2-dEGF(3F)WE-Ahx-K(NHCO-(2,4,6-(Me)3-Ph))-NH2] | 3.39 |  |  |  | 
B4 |  | 0 | 3 | 0 | 2
{Benzenesulfonyl(4-OMe)}-[dD]EG[Phe(3-F)]WE[Ahx]K(Benzoyl(4-Me))-NH2 (also called UBP057) [4-(MeO)PhSO2-dEGF(3F)WE-Ahx-K(NHCO-(4-(ME)-Ph))-NH2] | 2.88 |  |  |  | 
B5 |  | 0 | 0 | 0 | 0
{Benzenesulfonyl(4-OMe)}-[dD]EG[Phe(3-F)]WE[Ahx]K(Benzoyl(4-Br))-NH2 (also called UBP058) [4-(MeO)PhSO2-dEGF(3F)WE-Ahx-K(NHCO-(4-(Br)-Ph))-NH2] | 3.35 |  |  |  | 
B6 |  | 0 | 4 | 0 | 4
{Benzenesulfonyl(4-OMe)}-[dD]EG[Phe(3-F)]WE[Ahx]K(4‑chlorobenzoyl)-NH2 (also called UBP060) [4-(MeO)PhSO2-dEGF(3F)WE-Ahx-K(NHCO-(4-(Cl)-Ph))-NH2] | 3.64 |  |  |  | 
Suc-EG[Phe(3-F)][1Nal]E-NH2 [Suc-EGF(3F)1NalE-NH2] |  | 0 | 12 | 3 | 0
{Benzenesulfonyl(4-OMe)}-[dD]EG[Phe(3-F)]WE[Ahx]K(4‑methoxybenzoyl)-NH2 (also called UBP066) [4-(MeO)PhSO2-dEGF(3F)WE-Ahx-K(NHCO-(4-(OMe)-Ph))-NH2] | 5.17 |  |  |  | 
{Benzenesulfonyl(4-OMe)}-[dD]EG[Phe(3-F)]WE[Ahx]K(4‑bromophenylsulfonyl)-NH2 (also called UBP059) [4-(MeO)PhSO2-dEGF(3F)WE-Ahx-K(NHSO2-(4-(Br)-Ph))-NH2] | 2.96 |  |  |  | 
{Benzenesulfonyl(4-OMe)}-[dD]EG[Phe(3-F)]WE[Ahx]K(1‑naphthyloxycarbonyl)-NH2 (also called UBP069) [4-(MeO)PhSO2-dEGF(3F)WE-Ahx-K(NHOCO-1-Naph)-NH2] | 11.6 |  |  |  | 
B7 | 5.78 |  |  |  | 
{Benzenesulfonyl(4-OMe)}-[dD]EG[Phe(3-F)]WE[Ahx]K(phenylcarbamoyl)-NH2 [4-(MeO)PhSO2-dEGF(3F)WE-Ahx-K(NHCONH-Ph)-NH2] | 5.61 |  |  |  | 
B8 |  | 12 | 6 | 14 | 28
B9 |  | 0 | 14 | 0 | 18
B10 | 5.94 |  |  |  | 
{Benzenesulfonyl(4-OMe)}-[dD]EG[Phe(3-F)]WE[Ahx]K(4‑(dimethylamino)benzoyl)-NH2 (also called UBP071) [4-(MeO)PhSO2 dEGF(3F)WE-Ahx-K(NHCO-(4-(Me2N)-Ph))-NH2] | 9.51 |  |  |  | 
Suc-EGY[1Nal]E-NH2 [Suc-EGY1NalE-NH2] |  | 0 | 6 | 1 | 5
B11 |  | 8 | 13 | 0 | 0
{Benzenesulfonyl(4-OMe)}-[dD]EG[Phe(3-F)]WE[Ahx]K(Benzoyl(4-tBu))-NH2 (also called UBP054) [4-(MeO)PhSO2-dEGF(3F)WE-Ahx-K(NHCO-(4-(t-Bu-Ph))-NH2] | 1.94 |  |  |  | 
B12 | 5.38 |  |  |  | 
